This note sets out measurements from PMC10491184 (bioRxiv, 2023).

Several values for one entry are separate records, joined by “and”; a condition that tells them apart may be missing. Equal values may be shown once.

Data set [1] concerns the target T1, Rho (transcription termination factor) wt (Escherichia coli, UniProt P0AG30 1-419). Put plainly: fluorescence anisotropy.
Data set [2] has as its target T1, Rho (transcription termination factor) …. Put plainly: fluorescence anisotropy. The source holds these as a separate data set. For orientation: Fluorescence polarisation rises when a labelled molecule tumbles more slowly, as on binding a larger partner.
In data set [3] the target is Rho (transcription termination factor) wt;Rof Y13A (Escherichia coli;Escherichia coli, UniProt P0AG30;P0AFW8 1-419;1-84, |Y13A). Put plainly: fluorescence anisotropy.
The target in data set [4] is Rho (transcription termination factor) wt;Rof D14A (Escherichia coli;Escherichia coli, UniProt P0AG30;P0AFW8 1-419;1-84, |D14A). The data set can be described thus: fluorescence anisotropy.
Data set [5] has as its target Escherichia coli transcription termination factor ρ, wildtype (E. coli, UniProt P0AG30 1-419). Put plainly: cryo-EM structure.
For data set [6], the target named is Escherichia coli transcription termination factor ρ F89S (E. coli, UniProt P0AG30 1-419, F89S). Put plainly: SEC. Background: Size exclusion chromatography separates by hydrodynamic size, large species first.
For data set [7], the target named is Escherichia coli transcription termination factor ρ K115E (E. coli, UniProt P0AG30 1-419, K115E). The data set can be described thus: SEC.

Consider UUUUUUUUUUUU (ssRNA) [rU12], for which, in data set [1], the binding result is given as “binds”.

For CCCCCCCCCCCCCCC (ssDNA) [dC15], the Kd (in general, the equilibrium constant for the complex coming apart) in data set [2] worked out at 1000 nM. The binding result in data set [3] and in data set [4] was “binds” throughout.

B1: Escherichia coli Rof, wildtype, tag-less (natural protein, E. coli)
chain: MNDTYQPINCDDYDNLELACQHHLMLTLELKDGEKLQAKASDLVSRKNVEYLVVEAAGETRELRLDKITSFSHPEIGTVVVSES
As to B1, the “stoichiometry N” value in data set [5] is 5 Rof molecules per ρ hexamer and 4 Rof molecules per ρ pentamer. The binding result in data set [6] and in data set [7] was “binds” throughout.
